T1: PDZD2_2, O15018
T1 sequence (O15018 329-429, limits assumed, looked up): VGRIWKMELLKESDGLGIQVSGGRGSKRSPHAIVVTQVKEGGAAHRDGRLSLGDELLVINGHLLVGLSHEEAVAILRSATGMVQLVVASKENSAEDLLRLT

T2: SNTA1, Q13424
T2 sequence (Q13424 82-180, limits assumed, looked up): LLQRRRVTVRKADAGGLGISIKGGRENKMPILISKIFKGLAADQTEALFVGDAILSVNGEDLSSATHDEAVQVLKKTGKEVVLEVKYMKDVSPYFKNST

T3: TJP3_3, O95049
T3 sequence (O95049 375-456, limits assumed, looked up): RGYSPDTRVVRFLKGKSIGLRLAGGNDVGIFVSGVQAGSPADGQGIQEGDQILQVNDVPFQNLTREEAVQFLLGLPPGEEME

T4: HTRA4, P83105
T4 sequence (P83105 378-476, limits assumed, looked up): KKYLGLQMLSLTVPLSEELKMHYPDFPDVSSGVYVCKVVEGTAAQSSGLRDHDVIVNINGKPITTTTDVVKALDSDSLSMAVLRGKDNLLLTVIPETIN

T5: GRIP1_2, Q9Y3R0
T5 sequence (Q9Y3R0 145-248, limits assumed, looked up): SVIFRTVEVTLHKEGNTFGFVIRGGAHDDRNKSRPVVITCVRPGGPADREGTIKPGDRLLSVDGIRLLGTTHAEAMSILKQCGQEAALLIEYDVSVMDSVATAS

T6: NHERF3_4, Q5T2W1
T6 sequence (Q5T2W1 373-468, limits assumed, looked up): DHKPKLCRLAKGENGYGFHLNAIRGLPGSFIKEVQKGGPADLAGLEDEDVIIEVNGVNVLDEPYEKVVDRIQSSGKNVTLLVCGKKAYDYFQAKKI

T7: SNTG1, Q9NSN8
T7 sequence (Q9NSN8 52-150, limits assumed, looked up): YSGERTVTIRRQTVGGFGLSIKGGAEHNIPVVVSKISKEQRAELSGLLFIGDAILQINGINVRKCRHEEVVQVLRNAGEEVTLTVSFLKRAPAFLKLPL

T8: SIPA1L2, Q9P2F8
T8 sequence (Q9P2F8 945-1036, limits assumed, looked up): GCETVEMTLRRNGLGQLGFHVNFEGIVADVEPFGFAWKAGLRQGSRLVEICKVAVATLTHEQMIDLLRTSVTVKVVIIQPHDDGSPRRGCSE

T9: NHERF3_3, Q5T2W1
T9 sequence (Q5T2W1 238-333, limits assumed, looked up): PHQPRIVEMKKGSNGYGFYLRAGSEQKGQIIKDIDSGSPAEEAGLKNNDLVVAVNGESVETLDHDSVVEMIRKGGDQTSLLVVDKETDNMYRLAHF

T10: CARD11, Q9BXL7
T10 sequence (Q9BXL7 662-765, limits assumed, looked up): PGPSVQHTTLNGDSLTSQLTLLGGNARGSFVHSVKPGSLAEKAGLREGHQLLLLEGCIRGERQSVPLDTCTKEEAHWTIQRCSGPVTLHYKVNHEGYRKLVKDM

B1: KCNB1, Q14721 (peptide)
chain: AHGSTRDQSI
B2: TYRO3, Q06418 (peptide)
chain: QQGLLPHSSC

These binders were tested against MAST1, Q9Y2H9 (assay: holdup assay). Settings: plain residues with an end cap or a label only (N-terminal biotin on a linker: ado-ado).
Chain of MAST1, Q9Y2H9 (Q9Y2H9 962-1065): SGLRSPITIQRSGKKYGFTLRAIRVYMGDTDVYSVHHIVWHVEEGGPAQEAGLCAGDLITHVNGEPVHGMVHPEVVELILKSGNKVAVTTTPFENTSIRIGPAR
Parameters: key: below the threshold = too weak to quantify, mostly under pKd 3.1 to 4
For B1, the pKd was 3.69.
B2 was tested, and the pKd was “below the threshold”.

These binders were tested against T1, PDZD2_2, O15018 (assay: holdup assay). Settings: plain residues with an end cap or a label only (N-terminal biotin on a linker: ado-ado).
Parameters: key: below the threshold = too weak to quantify, mostly under pKd 3.1 to 4
B1 was tested, and the pKd was “below the threshold”.
In the case of B2, the pKd is reported as 3.55.

These binders were tested against GOPC, Q9HD26 (assay: holdup assay). Settings: plain residues with an end cap or a label only (N-terminal biotin on a linker: ado-ado).
Parameters: key: below the threshold = too weak to quantify, mostly under pKd 3.1 to 4
In the case of B1, the pKd is reported as “below the threshold”.
B2 was tested, and the pKd was “below the threshold”.

What follows are binders tested against GRIP2_3, Q9C0E4 (assay: holdup assay). Settings: plain residues with an end cap or a label only (N-terminal biotin on a linker: ado-ado).
Chain of GRIP2_3, Q9C0E4 (Q9C0E4 238-339): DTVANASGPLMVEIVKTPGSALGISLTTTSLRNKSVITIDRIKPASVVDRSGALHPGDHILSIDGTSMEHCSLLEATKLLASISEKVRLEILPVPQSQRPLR
Parameters: key: below the threshold = too weak to quantify, mostly under pKd 3.1 to 4
B1 was tested, and the pKd was “below the threshold”.
In the case of B2, the pKd is reported as “below the threshold”.

The binders below were run against LNX1_3, Q8TBB1 (assay: holdup assay). Settings: plain residues with an end cap or a label only (N-terminal biotin on a linker: ado-ado).
Chain of LNX1_3, Q8TBB1 (Q8TBB1 500-596): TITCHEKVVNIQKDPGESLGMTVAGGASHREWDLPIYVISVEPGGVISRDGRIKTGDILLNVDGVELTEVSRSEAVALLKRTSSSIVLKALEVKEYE
Parameters: key: below the threshold = too weak to quantify, mostly under pKd 3.1 to 4
In the case of B1, the pKd is reported as “below the threshold”.
B2 was tested, and the pKd was “below the threshold”.

What follows are binders tested against NHERF4_2, Q86UT5 (assay: holdup assay). Settings: plain residues with an end cap or a label only (N-terminal biotin on a linker: ado-ado).
Chain of NHERF4_2, Q86UT5 (Q86UT5 220-308): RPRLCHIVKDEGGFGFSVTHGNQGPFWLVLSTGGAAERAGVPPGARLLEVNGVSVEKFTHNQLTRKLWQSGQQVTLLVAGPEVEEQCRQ
Parameters: key: below the threshold = too weak to quantify, mostly under pKd 3.1 to 4
For B1, the pKd was “below the threshold”.
B2 was tested, and the pKd was “below the threshold”.

These binders were tested against GRIP2_4, Q9C0E4 (assay: holdup assay). Settings: plain residues with an end cap or a label only (N-terminal biotin on a linker: ado-ado).
Chain of GRIP2_4, Q9C0E4 (Q9C0E4 446-548): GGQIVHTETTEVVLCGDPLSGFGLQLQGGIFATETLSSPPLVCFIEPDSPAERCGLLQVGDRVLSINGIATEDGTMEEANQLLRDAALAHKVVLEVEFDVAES
Parameters: key: below the threshold = too weak to quantify, mostly under pKd 3.1 to 4
With B1 the pKd was 3.68.
B2 was tested, and the pKd was “below the threshold”.

What follows are binders tested against T2, SNTA1, Q13424 (assay: holdup assay). Settings: plain residues with an end cap or a label only (N-terminal biotin on a linker: ado-ado).
Parameters: key: below the threshold = too weak to quantify, mostly under pKd 3.1 to 4
For B1, the pKd was “below the threshold”.
With B2 the pKd was “below the threshold”.

Each binder was assayed against DLG2_2, Q15700 (assay: holdup assay). Settings: plain residues with an end cap or a label only (N-terminal biotin on a linker: ado-ado).
Chain of DLG2_2, Q15700 (Q15700 189-283): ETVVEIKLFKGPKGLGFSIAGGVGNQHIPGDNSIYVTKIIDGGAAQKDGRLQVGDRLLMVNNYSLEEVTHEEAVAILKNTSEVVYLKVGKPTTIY
Parameters: key: below the threshold = too weak to quantify, mostly under pKd 3.1 to 4
Work on B1 yielded a pKd of 3.86.
With B2 the pKd was “below the threshold”.

What follows are binders tested against MAGI2_4, Q86UL8 (assay: holdup assay). Settings: plain residues with an end cap or a label only (N-terminal biotin on a linker: ado-ado).
Chain of MAGI2_4, Q86UL8 (Q86UL8 772-865): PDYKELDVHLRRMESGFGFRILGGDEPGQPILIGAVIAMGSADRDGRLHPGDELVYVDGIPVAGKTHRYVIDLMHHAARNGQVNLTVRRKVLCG
Parameters: key: below the threshold = too weak to quantify, mostly under pKd 3.1 to 4
B1 gave a pKd of 3.9.
B2 was tested, and the pKd was “below the threshold”.

What follows are binders tested against LDB3, O75112 (assay: holdup assay). Settings: plain residues with an end cap or a label only (N-terminal biotin on a linker: ado-ado).
Chain of LDB3, O75112 (O75112 1-94): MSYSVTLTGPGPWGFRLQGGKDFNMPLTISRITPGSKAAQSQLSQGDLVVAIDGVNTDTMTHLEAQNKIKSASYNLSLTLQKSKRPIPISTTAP
Parameters: key: below the threshold = too weak to quantify, mostly under pKd 3.1 to 4
B1 was tested, and the pKd was “below the threshold”.
In the case of B2, the pKd is reported as “below the threshold”.

The binders below were run against PTPN3, P26045 (assay: holdup assay). Settings: plain residues with an end cap or a label only (N-terminal biotin on a linker: ado-ado).
Chain of PTPN3, P26045 (P26045 505-587): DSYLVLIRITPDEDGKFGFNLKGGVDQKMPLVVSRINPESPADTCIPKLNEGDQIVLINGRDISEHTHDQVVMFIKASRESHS
Parameters: key: below the threshold = too weak to quantify, mostly under pKd 3.1 to 4
With B1 the pKd was 4.07.
With B2 the pKd was “below the threshold”.

These binders were tested against T3, TJP3_3, O95049 (assay: holdup assay). Settings: plain residues with an end cap or a label only (N-terminal biotin on a linker: ado-ado).
Parameters: key: below the threshold = too weak to quantify, mostly under pKd 3.1 to 4
With B1 the pKd was 3.51.
B2 was tested, and the pKd was “below the threshold”.

The binders below were run against T4, HTRA4, P83105 (assay: holdup assay). Settings: plain residues with an end cap or a label only (N-terminal biotin on a linker: ado-ado).
Parameters: key: below the threshold = too weak to quantify, mostly under pKd 3.1 to 4
For B1, the pKd was “below the threshold”.
In the case of B2, the pKd is reported as “below the threshold”.

What follows are binders tested against FRMPD2_1, Q68DX3 (assay: holdup assay). Settings: plain residues with an end cap or a label only (N-terminal biotin on a linker: ado-ado).
Chain of FRMPD2_1, Q68DX3 (Q68DX3 770-861): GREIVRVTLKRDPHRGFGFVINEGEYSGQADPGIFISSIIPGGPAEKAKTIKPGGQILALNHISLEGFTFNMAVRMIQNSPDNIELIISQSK
Parameters: key: below the threshold = too weak to quantify, mostly under pKd 3.1 to 4
In the case of B1, the pKd is reported as 3.65.
With B2 the pKd was “below the threshold”.

These binders were tested against SCRIB_2, Q14160 (assay: holdup assay). Settings: plain residues with an end cap or a label only (N-terminal biotin on a linker: ado-ado).
Chain of SCRIB_2, Q14160 (Q14160 857-960): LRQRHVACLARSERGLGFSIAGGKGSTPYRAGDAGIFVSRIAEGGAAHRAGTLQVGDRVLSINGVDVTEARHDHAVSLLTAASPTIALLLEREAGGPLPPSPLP
Parameters: key: below the threshold = too weak to quantify, mostly under pKd 3.1 to 4
With B1 the pKd was “below the threshold”.
B2 was tested, and the pKd was “below the threshold”.

The binders below were run against T5, GRIP1_2, Q9Y3R0 (assay: holdup assay). Settings: plain residues with an end cap or a label only (N-terminal biotin on a linker: ado-ado).
Parameters: key: below the threshold = too weak to quantify, mostly under pKd 3.1 to 4
With B1 the pKd was “below the threshold”.
For B2, the pKd was “below the threshold”.

The binders below were run against T6, NHERF3_4, Q5T2W1 (assay: holdup assay). Settings: plain residues with an end cap or a label only (N-terminal biotin on a linker: ado-ado).
Parameters: key: below the threshold = too weak to quantify, mostly under pKd 3.1 to 4
With B1 the pKd was “below the threshold”.
For B2, the pKd was “below the threshold”.

Each binder was assayed against T7, SNTG1, Q9NSN8 (assay: holdup assay). Settings: plain residues with an end cap or a label only (N-terminal biotin on a linker: ado-ado).
Parameters: key: below the threshold = too weak to quantify, mostly under pKd 3.1 to 4
B1 gave a pKd of 3.5.
In the case of B2, the pKd is reported as “below the threshold”.

The binders below were run against T8, SIPA1L2, Q9P2F8 (assay: holdup assay). Settings: plain residues with an end cap or a label only (N-terminal biotin on a linker: ado-ado).
Parameters: key: below the threshold = too weak to quantify, mostly under pKd 3.1 to 4
Binder B1 has a pKd of 3.58.
In the case of B2, the pKd is reported as “below the threshold”.

The binders below were run against PICK1, Q9NRD5 (assay: holdup assay). Settings: plain residues with an end cap or a label only (N-terminal biotin on a linker: ado-ado).
Chain of PICK1, Q9NRD5 (Q9NRD5 17-115): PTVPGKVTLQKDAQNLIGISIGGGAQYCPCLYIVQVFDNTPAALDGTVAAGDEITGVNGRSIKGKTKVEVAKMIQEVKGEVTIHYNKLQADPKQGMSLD
Parameters: key: below the threshold = too weak to quantify, mostly under pKd 3.1 to 4
With B1 the pKd was 4.15.
In the case of B2, the pKd is reported as “below the threshold”.

Each binder was assayed against HTRA1, Q92743 (assay: holdup assay). Settings: plain residues with an end cap or a label only (N-terminal biotin on a linker: ado-ado).
Chain of HTRA1, Q92743 (Q92743 360-477): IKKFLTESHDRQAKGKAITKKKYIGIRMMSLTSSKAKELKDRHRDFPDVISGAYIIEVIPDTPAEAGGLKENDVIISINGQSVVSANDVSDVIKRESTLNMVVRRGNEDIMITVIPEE
Parameters: key: below the threshold = too weak to quantify, mostly under pKd 3.1 to 4
For B1, the pKd was 3.53.
With B2 the pKd was “below the threshold”.

These binders were tested against MAGI2_5, Q86UL8 (assay: holdup assay). Settings: plain residues with an end cap or a label only (N-terminal biotin on a linker: ado-ado).
Chain of MAGI2_5, Q86UL8 (Q86UL8 915-1017): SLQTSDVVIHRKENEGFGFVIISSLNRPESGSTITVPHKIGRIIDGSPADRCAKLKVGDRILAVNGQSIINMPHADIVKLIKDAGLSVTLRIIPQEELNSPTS
Parameters: key: below the threshold = too weak to quantify, mostly under pKd 3.1 to 4
In the case of B1, the pKd is reported as “below the threshold”.
In the case of B2, the pKd is reported as “below the threshold”.

Each binder was assayed against CASK, O14936 (assay: holdup assay). Settings: plain residues with an end cap or a label only (N-terminal biotin on a linker: ado-ado).
Chain of CASK, O14936 (O14936 487-570): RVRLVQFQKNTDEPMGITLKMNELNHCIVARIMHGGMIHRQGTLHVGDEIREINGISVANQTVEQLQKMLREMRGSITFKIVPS
Parameters: key: below the threshold = too weak to quantify, mostly under pKd 3.1 to 4
With B1 the pKd was “below the threshold”.
In the case of B2, the pKd is reported as “below the threshold”.

These binders were tested against Inadl_5, Q8NI35 (assay: holdup assay). Settings: plain residues with an end cap or a label only (N-terminal biotin on a linker: ado-ado).
Chain of Inadl_5, Q8NI35 (Q8NI35 673-780): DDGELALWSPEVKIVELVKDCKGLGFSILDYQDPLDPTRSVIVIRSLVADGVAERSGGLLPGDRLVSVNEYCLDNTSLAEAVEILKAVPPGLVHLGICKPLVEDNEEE
Parameters: key: below the threshold = too weak to quantify, mostly under pKd 3.1 to 4
In the case of B1, the pKd is reported as “below the threshold”.
With B2 the pKd was “below the threshold”.

These binders were tested against Inadl_6, Q8NI35 (assay: holdup assay). Settings: plain residues with an end cap or a label only (N-terminal biotin on a linker: ado-ado).
Chain of Inadl_6, Q8NI35 (Q8NI35 1058-1167): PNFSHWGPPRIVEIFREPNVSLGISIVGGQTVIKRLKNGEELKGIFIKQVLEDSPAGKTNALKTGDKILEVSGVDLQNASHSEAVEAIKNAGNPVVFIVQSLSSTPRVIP
Parameters: key: below the threshold = too weak to quantify, mostly under pKd 3.1 to 4
For B1, the pKd was “below the threshold”.
With B2 the pKd was “below the threshold”.

These binders were tested against MAGI2_3, Q86UL8 (assay: holdup assay). Settings: plain residues with an end cap or a label only (N-terminal biotin on a linker: ado-ado).
Chain of MAGI2_3, Q86UL8 (Q86UL8 600-682): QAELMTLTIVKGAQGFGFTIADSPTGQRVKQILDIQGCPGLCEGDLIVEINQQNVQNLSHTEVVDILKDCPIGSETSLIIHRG
Parameters: key: below the threshold = too weak to quantify, mostly under pKd 3.1 to 4
B1 was tested, and the pKd was “below the threshold”.
In the case of B2, the pKd is reported as “below the threshold”.

What follows are binders tested against T9, NHERF3_3, Q5T2W1 (assay: holdup assay). Settings: plain residues with an end cap or a label only (N-terminal biotin on a linker: ado-ado).
Parameters: key: below the threshold = too weak to quantify, mostly under pKd 3.1 to 4
In the case of B1, the pKd is reported as “below the threshold”.
B2 was tested, and the pKd was “below the threshold”.

These binders were tested against T10, CARD11, Q9BXL7 (assay: holdup assay). Settings: plain residues with an end cap or a label only (N-terminal biotin on a linker: ado-ado).
Parameters: key: below the threshold = too weak to quantify, mostly under pKd 3.1 to 4
B1 was tested, and the pKd was “below the threshold”.
For B2, the pKd was “below the threshold”.

Source: article PMC9482650, “Quantitative fragmentomics allow affinity mapping of interactomes” (Nature Communications, 2022)
